From the Human Domainome abundance scans (Beltran et al. 2025)
± gives the uncertainty stated by the source.

B1: POU domain, class 2, transcription factor 2, residues 200 to 269; numbered along this chain, P09086 (parent)
chain: LEELEQFARTFKQRRIKLGFTQGDVGLAMGKLYGNDFSQTTISRFEALNLSFKNMCKLKPLLEKWLNDAE

Variants of: B1
Test: abundance fitness (aPCA) (normalised: wild type 0, dead -1); higher = more abundant; growth selection in yeast, the domain comes from the species named
Conditions: Homo sapiens

Variant | abundance fitness
F11N | -1.1 ± 0.4
F11K | -0.961 ± 0.25
F11I | -0.254 ± 0.075
F11P | -1.03 ± 0.15
F11T | -0.495 ± 0.073
F11Y | -0.627 ± 0.17
Q39S | 0.005 ± 0.047
Q39L | -0.046 ± 0.037
Q39P | 0.035 ± 0.048
Q39A | -0.032 ± 0.034
M29N | -0.616 ± 0.14
M29W | -0.557 ± 0.061
M29P | -0.664 ± 0.081
M29L | 0.072 ± 0.042
M29D | -0.314 ± 0.19
D36Q | -0.047 ± 0.08
D36A | -0.05 ± 0.042
D36S | -0.05 ± 0.041
D36H | -0.003 ± 0.17
S43K | 0.062 ± 0.085
S43D | -0.049 ± 0.078
S43P | -0.002 ± 0.046
S43G | 0 ± 0.034
N35H | -0.114 ± 0.12

Variant | abundance fitness
N35M | -0.049 ± 0.053
C56I | -0.09 ± 0.062
C56S | -0.029 ± 0.042
C56W | -0.046 ± 0.04
C56A | -0.022 ± 0.033
N67D | -0.221 ± 0.22
L1M | -0.081 ± 0.094
T41M | 0.04 ± 0.068
T41E | -0.029 ± 0.093
T41R | -0.179 ± 0.036
T41W | -0.014 ± 0.059
T41I | -0.108 ± 0.12
P60M | -0.207 ± 0.076
P60Q | -0.103 ± 0.059
P60R | -0.102 ± 0.035
P60A | -0.124 ± 0.044
P60Y | -0.378 ± 0.082
P60W | -0.334 ± 0.065
E70W | -0.073 ± 0.065
E70Y | -0.195 ± 0.11
E70P | -0.253 ± 0.22
E70A | -0.047 ± 0.07
A47H | -0.144 ± 0.08
A47S | 0.053 ± 0.042

Variant | abundance fitness
A47T | 0.017 ± 0.05
A47I | -0.037 ± 0.11
A47V | -0.125 ± 0.041
A47M | -0.036 ± 0.065
S38M | -0.085 ± 0.051
S38R | -0.037 ± 0.023
S38Q | -0.054 ± 0.068
S38K | -0.055 ± 0.061
S38P | -0.065 ± 0.044
Q22C | -0.004 ± 0.07
Q22L | -0.025 ± 0.042
Q22R | -0.11 ± 0.037
F52H | -0.2 ± 0.12
F52T | 0.069 ± 0.061
F52I | -0.028 ± 0.063
F52V | -0.035 ± 0.05
I16M | -0.06 ± 0.065
I16Y | -0.194 ± 0.076
I16D | -0.133 ± 0.061
I16L | -0.042 ± 0.038
E46H | -0.944 ± 0.17
E46L | -0.904 ± 0.077
E46V | -0.79 ± 0.08
E46D | -0.942 ± 0.14

Variant | abundance fitness
E46Q | -1.08 ± 0.16
E46S | -1.05 ± 0.1
E46F | -0.996 ± 0.21
L18I | -0.099 ± 0.061
L18F | -0.035 ± 0.082
L18G | -0.159 ± 0.024
L48C | 0.049 ± 0.061
L48F | 0.056 ± 0.077
L48M | -0.031 ± 0.089
L48H | 0.023 ± 0.1
R15L | -0.806 ± 0.057
R15Y | -0.243 ± 0.094
R15G | -1.01 ± 0.092
R15S | -1 ± 0.12
R15A | -0.977 ± 0.091
F7I | -0.397 ± 0.11
F7K | -0.783 ± 0.1
F7N | -0.48 ± 0.099
F7V | -0.237 ± 0.048
F7P | -1.13 ± 0.23
F7L | -0.286 ± 0.044
F7W | -0.1 ± 0.046
E2P | -0.689 ± 0.19
N49I | -0.037 ± 0.059

Variant | abundance fitness
N49R | -0.052 ± 0.029
N49S | -0.005 ± 0.027
N49K | -0.007 ± 0.047
N49V | -0.091 ± 0.032
N49D | 0.049 ± 0.063
N49A | -0.026 ± 0.036
N49F | -0.219 ± 0.065
R44V | -0.523 ± 0.045
R44G | 0.008 ± 0.029
R44M | -0.006 ± 0.049
R44Q | 0.125 ± 0.069
R44A | 0.04 ± 0.052
R44H | -0.168 ± 0.095
R44S | 0.065 ± 0.086
R44W | -0.251 ± 0.045
K53D | -0.048 ± 0.075
K53R | -0.022 ± 0.039
K53I | -0.073 ± 0.12
K53Q | 0.028 ± 0.045
K53Y | -0.092 ± 0.14
K53S | 0.005 ± 0.043
Q6L | -0.066 ± 0.041
Q6D | 0.001 ± 0.18
Q6I | -0.028 ± 0.095

Variant | abundance fitness
Q6P | -0.151 ± 0.067
Q6A | -0.095 ± 0.049
Q6N | -0.141 ± 0.089
F45W | -0.205 ± 0.052
F45E | -1.09 ± 0.16
F45V | -0.371 ± 0.048
A28S | -0.079 ± 0.031
A28D | 0.024 ± 0.074
A28M | -0.047 ± 0.059
A28G | -0.098 ± 0.036
A28E | 0.06 ± 0.062
A28F | -0.032 ± 0.059
Q13Y | -0.169 ± 0.11
Q13C | -0.115 ± 0.062
Q13V | -0.023 ± 0.036
Q13N | -0.07 ± 0.065
K59A | -0.086 ± 0.054
K59F | -0.14 ± 0.094
K59V | -0.031 ± 0.036
K59G | -0.079 ± 0.038
D24A | -0.07 ± 0.048
D24E | -0.093 ± 0.065
K57L | -0.08 ± 0.041
K57V | -0.088 ± 0.042

Variant | abundance fitness
K57A | -0.057 ± 0.042
K57N | -0.125 ± 0.091
K57S | -0.067 ± 0.049
K57G | 0.002 ± 0.031
F37D | -0.4 ± 0.091
F37I | 0.088 ± 0.068
F37S | -0.24 ± 0.049
V25A | -0.01 ± 0.04
V25P | -0.915 ± 0.11
V25C | -0.229 ± 0.091
V25R | -0.696 ± 0.06
V25M | -0.291 ± 0.055
V25F | -0.548 ± 0.097
V25G | -1.05 ± 0.088
V25S | -0.453 ± 0.046
A69P | -0.15 ± 0.054
A69N | 0.128 ± 0.25
A69S | -0.046 ± 0.051
L27S | -0.073 ± 0.043
L27R | 0.006 ± 0.028
L27D | -0.012 ± 0.072
D68I | -0.22 ± 0.088
D68W | -0.147 ± 0.06
